In patent US20150166606A1 (RA PHARMACEUTICALS, published 2015):
Numbered stars: 1 amine (or outer) side, 2 acyl side, 3 side chain; on linkers, the order of the positions; unused ones are H or OH. Bridge positions count the residues as written; N and C are the ends. Square brackets hold non-standard residues; d marks the D form. Ends that are not written are not given here. * marks the point of attachment. mXylyl = xylyl linker from dibromoxylene joining the two cysteines; Phe(3-CH2NH2) = O=C([C@H](Cc1cccc(CN[*:3])c1)N[*:1])[*:2]; Ala(1H-tetrazol-5-yl) = N[C@@H](Cc1nnn[nH]1)C(=O)O; des‑NH2 = missing amino-terminal amine group; Phe(4-CH2NH2) = NCc1ccc(C[C@H](N)C(=O)O)cc1; hexyltetrazolyl‑mXylyl = not defined here; η‑ω‑MeR = eta-omega methylated arginine; pXylylene = c1cc(C[*:2])ccc1C[*:1]; NMeE = CN[C@@H](CCC(=O)O)C(=O)O; Gly(cPr) = N[C@H](C(=O)O)C1CC1; dPhg = N[C@@H](C(=O)O)c1ccccc1; Chg = N[C@H](C(=O)O)C1CCCCC1; Pen = CC(C)(S)[C@H](N)C(=O)O; Phg = N[C@H](C(=O)O)c1ccccc1; Tle = CC(C)(C)[C@H](N)C(=O)O; hLys = NCCCCC[C@H](N)C(=O)O; oXylyl = ortho-xylyl linker; mLutidine = meta-lutidine; Heptanoyl = CCCCCCC(=O)*; Nle = CCCC[C@H](N)C(=O)O; Nva = CCC[C@H](N)C(=O)O; Mpa = O=C(O)CCS; Sar = CNCC(=O)O

These binders were tested against Activated human plasma kallikrein (Enzyme Research Laboratories, HPKa 1303) (human, UniProt P03952 20-638) (assay: cell-based or functional assay).
Chain of Activated human plasma kallikrein (Enzyme Research Laboratories, HPKa 1303) (P03952 20-638 limits assumed): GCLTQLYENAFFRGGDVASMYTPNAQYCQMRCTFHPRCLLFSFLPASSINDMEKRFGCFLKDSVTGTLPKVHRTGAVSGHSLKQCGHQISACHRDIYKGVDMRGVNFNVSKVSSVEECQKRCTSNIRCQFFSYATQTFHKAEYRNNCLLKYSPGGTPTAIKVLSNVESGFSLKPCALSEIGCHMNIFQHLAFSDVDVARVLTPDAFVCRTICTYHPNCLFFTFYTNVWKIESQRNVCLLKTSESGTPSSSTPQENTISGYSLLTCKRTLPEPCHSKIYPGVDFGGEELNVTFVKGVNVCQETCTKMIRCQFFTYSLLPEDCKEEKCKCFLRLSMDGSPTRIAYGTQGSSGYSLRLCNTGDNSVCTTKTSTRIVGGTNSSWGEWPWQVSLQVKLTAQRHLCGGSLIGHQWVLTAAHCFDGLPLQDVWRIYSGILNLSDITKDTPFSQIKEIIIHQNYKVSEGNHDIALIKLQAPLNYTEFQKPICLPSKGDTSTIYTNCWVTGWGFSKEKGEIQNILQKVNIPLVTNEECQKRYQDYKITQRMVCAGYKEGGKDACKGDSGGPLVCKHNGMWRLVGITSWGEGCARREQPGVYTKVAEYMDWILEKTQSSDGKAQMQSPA

Binder | Avg. IC50 [nM]
MC[Ala(1H-tetrazol-5-yl)]SICRV-NH2 (linker 2-6 via mXylyl) [R2020] | 13
[Nva]CESIC[Phe(3-CH2NH2)]V-NH2 (linker 2-6 via mXylyl) [R2022] | 21000
MCESICRV-NH2 (linker 2-6 via oXylyl) [R2042] | 3190
MCESICRV-NH2 (linker 2-6 via pXylylene) [R2043] | 617
[Nva]CESICRF-NH2 (linker 2-6 via mXylyl) [R2035] | 7200
[Nva]CESIC[Phe(4-CH2NH2)]V-NH2 (linker 2-6 via mXylyl) [R2021] | 2000
Heptanoyl-CAS[dPhg]CR[Tle]-NH2 (linker 1-5 via mXylyl; not fully specified (residue 2); printed as [mXylyl(1,5)]Heptanoyl-C-a-S-(D)Phg-C-R-Tbg-NH2) [R2066] | 4370
[Nva][Pen]ESI[Pen]RV-NH2 (linker 2-6 via mXylyl) [R2034] | > 100000
MCASICRV-NH2 (linker 2-6 via mXylyl) [R2024] | 41.9
Ac-CASFCR[Tle]-NH2 (linker 1-5 via mXylyl) [R2059] | 425
Ac-CESICRVLRYSE-NH2 (linker 1-5 via mXylyl) [R2057] | 0.943
Ac-CASVCRV-NH2 (linker 1-5 via mXylyl; not fully specified (residue 2); printed as [mXylyl(1,5)]Ac-C-a-SVCRV-NH2) [R2063] | 151
MCEAICRV-NH2 (linker 2-6 via mXylyl) [R2018] | 37.3
Ac-CAS[Tle]CR[Tle]-NH2 (linker 1-5 via mXylyl) [R2048] | 1400
{des‑NH2}-CICRV-NH2 (linker 1-3 via mXylyl; not fully specified (residue 1); printed as [mXylyl(1,3)](des-NH2)C-ICRV-NH2) [R2049] | 16300
Ac-CAS[Gly(cPr)]CRV-NH2 (linker 1-5 via mXylyl; not fully specified (residue 2); printed as [mXylyl(1,5)]Ac-C-a-S-Cppg-CRV-NH2) [R2062] | 2470
[Nva]CES[Phg]CR[Tle]-NH2 (linker 2-6 via mXylyl) [R2013] | 6.8
Ac-[Nva]CESIC[hLys]V-NH2 (linker 2-6 via mXylyl) [R2033] | 8650
Ac-CAP[Phg]CR[Tle]-NH2 (linker 1-5 via mXylyl) [R2058] | 29.5
MCETICRVLKYSD-NH2 (linker 2-6 via mXylyl) [R2005] | 1.8
Ac-CA[Sar][Phg]CR[Tle]-NH2 (linker 1-5 via mXylyl) [R2052] | 74.2
Ac-CESICRVL-NH2 (linker 1-5 via mXylyl) [R2045] | 187
[Nva][Pen]ESICRV-NH2 (linker 2-6 via mXylyl) [R2031] | 1460

Continued, values first:

Avg. IC50 [nM] | Binder
9.5 | ACESICRV-NH2 (linker 2-6 via mXylyl) [R2025]
12800 | MCESICRV-NH2 (linker 2-6 via trans‑butenyl) [R2011]
1.9 | Ac-CESICRVLRYS-NH2 (linker 1-5 via mXylyl) [R2056]
645 | MCESICRV-NH2 (linker 2-6 via mLutidine) [R2044]
11 | Ac-MCES[Chg]CRV-NH2 (linker 2-6 via mXylyl) [R2050]
410 | Ac-CSICRV-NH2 (linker 1-4 via mXylyl) [R2037]
19.1 | Heptanoyl-CAS[Phg]CR[Tle]-NH2 (linker 1-5 via mXylyl; not fully specified (residue 2); printed as [mXylyl(1,5)]Heptanoyl-C-a-S-Phg-C-R-Tbg-NH2) [R2067]
12.7 | Ac-CAS[Phg]CR[Tle]-NH2 (linker 1-5 via mXylyl; not fully specified (residue 2); printed as [mXylyl(1,5)]Ac-C-a-S-Phg-CR-Tbg-NH2) [R2061]
14.9 | [Mpa][code a]S[Phg]CR[Tle]-NH2 (linker 1-5 via mXylyl) [R2064]
5340 | Ac-CAS[Phg]C[Phe(4-CH2NH2)][Tle]-NH2 (linker 1-5 via mXylyl) [R2053]
714 | MCESICRV-NH2 (linker 2-6 via hexyltetrazolyl‑mXylyl; reading uncertain; also: printed as [hexyltetrazolyl-mXylyl(2,6)]MCESICRV-NH2) [R2028]
8840 | [Nva]CESIC[hLys]V-NH2 (linker 2-6 via mXylyl) [R2029]
2140 | MCESACRV-NH2 (linker 2-6 via mXylyl) [R2017]
1030 | [Nva]CESI[Pen]RV-NH2 (linker 2-6 via mXylyl) [R2032]
2.2 | Ac-CESICRVLRY-NH2 (linker 1-5 via mXylyl) [R2055]
59.3 | Ac-CESICRVLR-NH2 (linker 1-5 via mXylyl) [R2046]
2000 | MCESICRV-NH2 (cysteine pairing not given here) [R2007]
11.9 | CAS[Phg]CR[Tle]-NH2 (linker 1-5 via mXylyl) [R2039]
37.5 | MCESICRVN-NH2 (linker 2-6 via mXylyl) [R2014]
3900 | MCESICRA-NH2 (linker 2-6 via mXylyl) [R2016]
733 | MCESICKV-NH2 (linker 2-6 via mXylyl) [R2040]
16500 | MCESICR-NH2 (linker 2-6 via mXylyl) [R2015]
990 | MC[NMeE]ESICRV-NH2 (linker 2-7 via mXylyl; not fully specified; printed as [mXylyl(2,6)]MC-nMeE-ESICRV-NH2) [R2027]
959 | Ac-C[dA]S[dPhg]CR[Tle]-NH2 (linker 1-5 via mXylyl) [R2060]
299 | Ac-CESICRVLK-NH2 (linker 1-5 via mXylyl) [R2038]
39.7 | MCESICRV-NH2 (linker 2-6 via 3‑methoxy‑mXylyl) [R2102]
6.1 | Ac-C[Nle]S[Phg]CR[Tle]-NH2 (linker 1-5 via mXylyl) [R2065]
5000 | Ac-[Nva]CESIC[η‑ω‑MeR]V-NH2 (linker 2-6 via mXylyl) [R2054]
